Laboratory results as given in paper PMC2173330 (The Journal of Cell Biology, 2002).

Target: T1, XSMC1 (Xenopus (endogenous in egg extracts), UniProt O93308 1-1232)
T1 sequence: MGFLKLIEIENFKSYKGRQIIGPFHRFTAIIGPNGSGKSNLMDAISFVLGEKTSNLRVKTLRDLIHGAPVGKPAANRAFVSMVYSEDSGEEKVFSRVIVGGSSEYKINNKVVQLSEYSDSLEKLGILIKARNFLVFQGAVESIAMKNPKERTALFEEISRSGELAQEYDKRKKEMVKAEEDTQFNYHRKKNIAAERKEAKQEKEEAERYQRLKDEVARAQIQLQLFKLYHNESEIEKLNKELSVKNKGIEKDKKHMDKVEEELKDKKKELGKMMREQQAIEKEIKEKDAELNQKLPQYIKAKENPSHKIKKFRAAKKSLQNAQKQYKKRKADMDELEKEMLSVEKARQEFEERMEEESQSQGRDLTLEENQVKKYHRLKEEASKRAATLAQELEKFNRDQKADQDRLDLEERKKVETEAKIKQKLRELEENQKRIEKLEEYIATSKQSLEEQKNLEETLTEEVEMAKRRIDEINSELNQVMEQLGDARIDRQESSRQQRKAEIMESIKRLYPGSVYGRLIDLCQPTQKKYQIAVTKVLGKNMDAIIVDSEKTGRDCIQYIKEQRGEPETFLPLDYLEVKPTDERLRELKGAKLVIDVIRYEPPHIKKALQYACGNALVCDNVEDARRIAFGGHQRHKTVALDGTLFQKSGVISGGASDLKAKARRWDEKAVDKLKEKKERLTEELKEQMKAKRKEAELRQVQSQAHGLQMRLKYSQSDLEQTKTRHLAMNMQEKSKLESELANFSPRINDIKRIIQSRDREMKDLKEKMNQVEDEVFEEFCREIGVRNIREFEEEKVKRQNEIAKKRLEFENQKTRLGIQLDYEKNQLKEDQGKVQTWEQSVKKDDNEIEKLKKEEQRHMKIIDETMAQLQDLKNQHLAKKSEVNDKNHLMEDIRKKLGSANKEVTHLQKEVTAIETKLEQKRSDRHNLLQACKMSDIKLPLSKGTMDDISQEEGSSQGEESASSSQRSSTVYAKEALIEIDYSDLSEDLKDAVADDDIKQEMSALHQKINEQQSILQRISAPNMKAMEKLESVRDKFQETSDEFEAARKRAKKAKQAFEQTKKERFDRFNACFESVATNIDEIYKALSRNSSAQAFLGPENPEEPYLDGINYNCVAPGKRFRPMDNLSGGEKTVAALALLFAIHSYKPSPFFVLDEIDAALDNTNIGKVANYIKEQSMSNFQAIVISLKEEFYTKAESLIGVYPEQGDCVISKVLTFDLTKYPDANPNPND
Assay: rotary-shadowing electron microscopy

B1: XSMC3 (natural protein)
chain: MYIKQVIIQGFRSYRDQTIVDPFSSKHNVIVGRNGSGKSNFFYAIQFVLSDEFSHLRPEQRLALLHEGTGPRVISAFVEIIFDNSDNRLPIDKEEVSLRRVIGAKKDQYFLDKKMVTKNDVMNLLESAGFSRSNPYYIVKQGKINQMATAPDSQRLKLLREVAGTRVYDERKEESISLMKETEGKRDKINELLKYIEERLHTLEEEKEELAQYQKWDKMRRALEYTIYNQELNETRAKLDELSSKRETSGEKSRQLRDAQQDARDKMEEIERQVRELKSKISAMKEEKEQLSSERQEQIKQRTKLELKTKDLQDELAGNSEQRKRLLKERQKLLEKIEEKQKELAETEPKFSSVKQKEESGIARLAQATQERTDLYAKQGRGSQFTSKEERDKWIKKELKSLDQAINDKKRQIAAINKDLEETEVNKEKNLEQYTKLDQDLNEVKTRVEELDKKYYEVKNKKDELQSERNYLWREENAEQQSLAAKREDLEKKQQLLRAATGKAILNGIDSINKVLEHFRRKGINQHVINGYHGIVMNNFDCEPAFYTCVEVTAGNRLFYHIVESDEVSTKILMEFNKMNLPGEVTFLPLNKLDVRDTAYPETNDAIPMISKLRYNLRFDKAFKHVFGKTLICRSMEVSTQLARAFTMDCITLEGDQVSHRGALTGGYYDTRKSRLELQKDVRKVEDELHALEAKLNENLRRNIERINNEIDQLMNQMQQIETQQRKFKASRDSILSEMKMLKEKRQQSEKTFMPKQRSLQSLEASLHAMESTRESLKAELGTDLLSQLSLEDQKRVDALNDEIRQLQQENRQLLNERIKLEGTITRVETYLNENLRKRLDQVEQELNELRETEGGTVLTATTSELEAINKRVKDTLARSEGLDITIDKTEVESKDLVKSMDRWKNMEKDHMDAINHDTKELEKMTNRQGMLLKKKEECMKKIRELGSLPQEAFEKYQTLSLKQLFRKLEQCNTELKKYSHVNKKALDQFVNFSEQKEKLIKRQEELDRGHKSIMELMNVLELRKYEAIQLTFKQVSKNFSEVFQKLVPGGKATLVMKKGDVEGSQSQDEGEGSTQSSVPSVDQFTGVGIRVSFTGKQAEMREMQQLSGGQKSLVALALIFAIQKCDPAPFYLFDEIDQALDAQHRKAVSDMIMELASHAQFITTTFRPELLESADKFYGVKFRNKVSHIDVITAEQAKDFVEDDTTHG
B1: binds.
